Results reported in patent publication US7727960B2, “C5a receptor antagonists” (Jerini AG, priority 2003, dated 2010).
Positions of bridges follow the written chain, without caps; N, C: chain ends. Non-standard residues stand in square brackets, D forms with d. No end group written: not given here. Phe(4-NH2) = Nc1ccc(C[C@H](N)C(=O)O)cc1; Cha = N[C@@H](CC1CCCCC1)C(=O)O; dCha = N[C@H](CC1CCCCC1)C(=O)O; AllylGly = C=CC[C@H](N)C(=O)O; Nle = CCCC[C@H](N)C(=O)O; Orn = NCCC[C@H](N)C(=O)O

T1: human C5aR (CD88) (human, UniProt P21730 1-350)
T1 sequence (looked up): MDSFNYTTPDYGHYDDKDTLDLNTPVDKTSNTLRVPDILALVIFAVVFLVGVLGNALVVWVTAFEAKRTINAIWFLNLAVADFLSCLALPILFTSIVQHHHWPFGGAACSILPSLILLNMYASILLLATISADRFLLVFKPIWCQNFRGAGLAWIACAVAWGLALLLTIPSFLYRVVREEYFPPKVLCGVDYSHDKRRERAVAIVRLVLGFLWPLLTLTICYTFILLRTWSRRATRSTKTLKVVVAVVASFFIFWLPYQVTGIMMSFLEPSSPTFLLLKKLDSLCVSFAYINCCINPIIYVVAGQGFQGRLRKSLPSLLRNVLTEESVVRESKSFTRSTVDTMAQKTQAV


Experiments:
Assay in all cases: cell-based or functional assay
human C5aR (CD88) [1] = target: T1, human C5aR (CD88)
human C5aR (CD88) [2] = target: T1, human C5aR (CD88); remark: listed apart in the source
human C5aR (CD88) [3] = target: T1, human C5aR (CD88); remark: listed apart in the source
human C5aR (CD88) [4] = target: T1, human C5aR (CD88); remark: listed apart in the source

Row | IC50 activity group, enzyme release assay (human C5aR (CD88) [2]) | EC50, agonistic activity, enzyme release assay (human C5aR (CD88) [3]) | Binder | further results
1 | ≤ 2 µM | – | Ac-FKA[Cha]AL[dA]Y-OH (SMILES CC(=O)N[C@@H](Cc1ccccc1)C(=O)N[C@@H](CCCCN)C(=O)N[C@@H](C)C(=O)N[C@@H](CC1CCCCC1)C(=O)N[C@@H](C)C(=O)N[C@@H](CC(C)C)C(=O)N[C@H](C)C(=O)N[C@@H](Cc1ccc(O)cc1)C(=O)O) [Ac-Phe-Lys-Ala-Cha-Ala-Leu-ala-Tyr-OH] | IC50, functional assay as used in this application (human C5aR (CD88) [1]): 1.3 µM
2 | ≤ 0.05 µM | – | Ac-F[Orn]P[dCha]W[Phe(4-NH2)] (lactam (positions not given here); not fully specified (bridges); printed as Ac-Phe-[Orn-Pro-cha-Trp-Paf]) [Ac-Phe-[Orn-Pro-cha-Trp-Paf]] | IC50, enzyme release assay (human C5aR (CD88) [1]): 0.03 µM
3 | ≤ 0.01 µM | > 1.43 µM | Ac-F[Orn]P[dCha]W[AllylGly] (lactam (positions not given here); not fully specified (bridges); printed as Ac-Phe-[Orn-Pro-cha-Trp-Eaf]) [Ac-Phe-[Orn-Pro-cha-Trp-Eaf]] | –
4 | > 2 µM | – | Ac-F[Orn]P[dA]WR (lactam (positions not given here); not fully specified (bridges); printed as Ac-Phe-[Orn-Pro-ala-Trp-Arg]) [Ac-Phe-[Orn-Pro-ala-Trp-Arg]] | IC50, functional assay (human C5aR (CD88) [1]): > 30 µM
5 | – | > 1.43 µM | {Ph‑CH2‑CH2‑CO}-[Orn]P[dCha]W[Nle] (lactam 1-C) [Ph-CH2-CH2-CO-[Orn-Pro-cha-Trp-Nle]] | –
6 | > 2 µM | – | Ac-F[Orn]P[dCha]WA (lactam (positions not given here); not fully specified (bridges); printed as Ac-Phe-[Orn-Pro-cha-Trp-Ala]) [Ac-Phe-[Orn-Pro-cha-Trp-Ala]] | IC50, functional assay (human C5aR (CD88) [1]): 5.6 µM
7 | ≤ 2 µM | – | FXPXWX (not fully specified; Ac-; Orn2; cha4 (D); Cit6; cyclic [2-6]) [Ac-Phe-[Orn-Pro-cha-Trp-Cit]] | IC50 activity group, enzyme release assay (Example 30) (human C5aR (CD88) [4]): ≤ 2 µM
8 | ≤ 0.05 µM | > 1.43 µM | Ac-KF[Orn]P[dCha]W[Nle] (lactam 3-C; SMILES CCCC[C@@H]1NC(=O)[C@H](Cc2c[nH]c3ccccc23)NC(=O)[C@@H](CC2CCCCC2)NC(=O)[C@@H]2CCCN2C(=O)[C@@H](NC(=O)[C@H](Cc2ccccc2)NC(=O)[C@H](CCCCN)NC(C)=O)CCCNC1=O) [Ac-Lys-Phe-[Orn-Pro-cha-Trp-Nle]] | –
9 | > 2 µM | – | Ac-A[Orn]P[dCha]WR (lactam 2-C; SMILES CC(=O)N[C@@H](C)C(=O)N[C@H]1CCCNC(=O)[C@H](CCCNC(=N)N)NC(=O)[C@H](Cc2c[nH]c3ccccc23)NC(=O)[C@@H](CC2CCCCC2)NC(=O)[C@@H]2CCCN2C1=O) [Ac-Ala-[Orn-Pro-cha-Trp-Arg]] | IC50, functional assay (human C5aR (CD88) [1]): > 30 µM
10 | – | > 1.43 µM | H-F[Orn]P[dCha]W[Nle] (lactam 2-C; not fully specified; printed as H-Phe-[Orn-Pro-cha-Trp-Nle]) [H-Phe-[Orn-Pro-cha-Trp-Nle]] | –
11 | > 2 µM | – | Ac-F[Orn]P[dCha]WK (lactam (positions not given here); not fully specified (bridges); printed as Ac-Phe-[Orn-Pro-cha-Trp-Lys]) [Ac-Phe-[Orn-Pro-cha-Trp-Lys]] | IC50, enzyme release assay (human C5aR (CD88) [1]): 8.7 µM
12 | ≤ 0.05 µM | > 1.43 µM | Ac-F[Orn]P[dCha]WF (lactam (positions not given here); not fully specified (bridges); printed as Ac-Phe-[Orn-Pro-cha-Trp-Phe]) [Ac-Phe-[Orn-Pro-cha-Trp-Phe]] | IC50, enzyme release assay (human C5aR (CD88) [1]): 0.023 µM
